Experimental data reported in the Immune Epitope Database (IEDB).

Legend:
HLA-B*18:01 = assay: IEDB peptide-MHC binding, purified MHC/competitive/radioactivity; filed as Kd, often an IC50 or EC50 that approximates it; ≥ and ≤ were set here for values at or beyond the usual limits of such assays
HLA-B*44:03 = assay: as above
HLA-B*40:02 = assay: as above
HLA-B*44:02 = assay: as above
HLA-B*45:01 = assay: as above
HLA-B*40:01 = assay: as above
HLA-B*35:01 = assay: as above
HLA-B*51:01 = assay: as above; settings: source organism: Dengue virus 1 Brazil/97-11/1997
HLA-B*39:01 = assay: IEDB peptide-MHC binding, purified MHC/competitive/fluorescence; filed as Kd, often an IC50 or EC50 that approximates it; ≥ and ≤ were set here for values at or beyond the usual limits of such assays; settings: source organism: Bacillus anthracis str. A0488
[1] = source organism: SARS coronavirus Tor2
[2] = source organism: Mammarenavirus brazilense
[3] = source organism: Mammarenavirus whitewaterense
[4] = source organism: Mammarenavirus machupoense
[5] = source organism: Lassa virus Josiah
[6] = source organism: Mammarenavirus lassaense
[7] = source organism: Mammarenavirus juninense
[8] = source organism: Mammarenavirus guanaritoense

Sequence: REIGFIVPGL
- Kd (HLA-B*18:01; [1]): 8.67 µM
- Kd (HLA-B*44:03; [1]): 0.00429 µM
- Kd (HLA-B*40:02; [1]): 0.000408 µM
- Kd (HLA-B*44:02; [1]): 0.0143 µM
- Kd (HLA-B*45:01; [1]): 0.103 µM
- Kd (HLA-B*40:01; [1]): 0.000132 µM

Sequence: LPDYGELTLD
- Kd (HLA-B*35:01; source organism: Dengue virus 4 Philippines/H241/1956): 9.96 µM

Sequence: FGIFTTNIWL
- Kd (HLA-B*51:01): ≥ 20.6 µM

Sequence: SEEVVENPTI
- Kd (HLA-B*18:01; [1]): ≥ 48.7 µM
- Kd (HLA-B*44:03; [1]): 1.04 µM
- Kd (HLA-B*40:02; [1]): 0.402 µM
- Kd (HLA-B*44:02; [1]): 0.471 µM
- Kd (HLA-B*45:01; [1]): 0.277 µM
- Kd (HLA-B*40:01; [1]): 1.05 µM

Sequence: IDPLIVSTS
- Kd (HLA-B*18:01; [2]): ≥ 77.5 µM
- Kd (HLA-B*44:03; [2]): 18.3 µM
- Kd (HLA-B*40:02; [2]): 4.61 µM
- Kd (HLA-B*44:02; [2]): ≥ 77.9 µM
- Kd (HLA-B*45:01; [2]): 18.9 µM
- Kd (HLA-B*40:01; [2]): ≥ 48.4 µM

Sequence: TPPGSVEAF
- Kd (HLA-B*35:01; source organism: Dengue virus 1 Brazil/97-11/1997): 0.699 µM

Sequence: REPETTVVL
- Kd (HLA-B*18:01; [3]): 7.9 µM
- Kd (HLA-B*44:03; [3]): ≥ 44.3 µM
- Kd (HLA-B*40:02; [3]): 0.0927 µM
- Kd (HLA-B*44:02; [3]): 18.6 µM
- Kd (HLA-B*45:01; [3]): ≥ 74.8 µM
- Kd (HLA-B*40:01; [3]): 0.112 µM

Sequence: EELSLMYETL
- Kd (HLA-B*18:01; [4]): 2.46 µM
- Kd (HLA-B*44:03; [4]): 1.32 µM
- Kd (HLA-B*40:02; [4]): 0.11 µM
- Kd (HLA-B*44:02; [4]): 1.54 µM
- Kd (HLA-B*45:01; [4]): 0.952 µM
- Kd (HLA-B*40:01; [4]): 10.4 µM

Sequence: KEINFLSQT
- Kd (HLA-B*18:01; [4]): ≥ 28.3 µM
- Kd (HLA-B*44:03; [4]): 17.3 µM
- Kd (HLA-B*40:02; [4]): 0.0151 µM
- Kd (HLA-B*44:02; [4]): 16.1 µM
- Kd (HLA-B*45:01; [4]): 0.643 µM
- Kd (HLA-B*40:01; [4]): ≥ 63.7 µM

Sequence: WPISKMDLGV
- Kd (HLA-B*51:01): 3.16 µM

Sequence: AEAQMSIQL
- Kd (HLA-B*18:01; [5]): ≥ 23.7 µM
- Kd (HLA-B*44:03; [5]): 0.106 µM
- Kd (HLA-B*40:02; [5]): 0.0126 µM
- Kd (HLA-B*44:02; [5]): 0.0374 µM
- Kd (HLA-B*45:01; [5]): 0.246 µM
- Kd (HLA-B*40:01; [5]): 0.0229 µM

Sequence: KEFTRPLISG
- Kd (HLA-B*18:01; [1]): ≥ 70.5 µM
- Kd (HLA-B*40:02; [1]): 19.5 µM
- Kd (HLA-B*44:02; [1]): 10.1 µM
- Kd (HLA-B*45:01; [1]): 2.64 µM
- Kd (HLA-B*40:01; [1]): 1.6 µM

Sequence: NELTLIDFYL
- Kd (HLA-B*18:01; [1]): 0.604 µM
- Kd (HLA-B*44:03; [1]): 0.051 µM
- Kd (HLA-B*40:02; [1]): 0.126 µM
- Kd (HLA-B*44:02; [1]): 0.157 µM
- Kd (HLA-B*45:01; [1]): 1.08 µM
- Kd (HLA-B*40:01; [1]): 0.231 µM

Sequence: TPPGTADAF
- Kd (HLA-B*35:01; source organism: Dengue virus 3 Martinique/1243/1999): 0.278 µM

Sequence: YHHTAINVL
- Kd (HLA-B*39:01): 0.0063 µM

Sequence: QELGHEDLMA
- Kd (HLA-B*18:01; [1]): ≥ 70.5 µM
- Kd (HLA-B*44:03; [1]): 2.35 µM
- Kd (HLA-B*40:02; [1]): 2.58 µM
- Kd (HLA-B*44:02; [1]): 4.15 µM
- Kd (HLA-B*45:01; [1]): 0.671 µM
- Kd (HLA-B*40:01; [1]): ≥ 26.9 µM

Sequence: MVQADSGCVI
- Kd (HLA-B*51:01): ≥ 63.9 µM

Sequence: SAFFGMSRIG
- Kd (HLA-B*18:01; [1]): ≥ 70.5 µM
- Kd (HLA-B*44:03; [1]): 8.77 µM
- Kd (HLA-B*40:02; [1]): ≥ 70.8 µM
- Kd (HLA-B*44:02; [1]): 18.4 µM
- Kd (HLA-B*45:01; [1]): ≥ 26.4 µM
- Kd (HLA-B*40:01; [1]): ≥ 44.9 µM

Sequence: DEILLDGGAS
- Kd (HLA-B*18:01; [6]): 0.07 µM
- Kd (HLA-B*44:03; [6]): ≥ 25.9 µM
- Kd (HLA-B*40:02; [6]): 0.902 µM
- Kd (HLA-B*44:02; [6]): ≥ 10 µM
- Kd (HLA-B*45:01; [6]): 5.95 µM
- Kd (HLA-B*40:01; [6]): ≥ 42.9 µM

Sequence: LDLVLLNLL
- Kd (HLA-B*18:01; [7]): ≥ 43.6 µM
- Kd (HLA-B*44:03; [7]): ≥ 45.4 µM
- Kd (HLA-B*40:02; [7]): 0.0485 µM
- Kd (HLA-B*44:02; [7]): ≥ 77.9 µM
- Kd (HLA-B*45:01; [7]): 12.5 µM
- Kd (HLA-B*40:01; [7]): 18.7 µM

Sequence: FEEALNVALA
- Kd (HLA-B*18:01; [8]): 0.0991 µM
- Kd (HLA-B*44:03; [8]): ≥ 70.1 µM
- Kd (HLA-B*40:02; [8]): 0.279 µM
- Kd (HLA-B*44:02; [8]): ≥ 70.2 µM
- Kd (HLA-B*45:01; [8]): 0.0893 µM
- Kd (HLA-B*40:01; [8]): 5.56 µM
